± gives the standard deviation of the averaged measurements.
Tested on: Saccharomyces cerevisiae
Assay: protein stability index of tFT-peptide fusion (C-terminal peptide) (PSI (0-1 scale)); higher = more stable (slower turnover)
Conditions: temperature: 30 C
Procedure: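 MPS profiling in S. cerevisiae of the yeast C-terminome library: the last 12 aa of each annotated ORF are fused to the C-terminus of a sfGFP-mCherry timer, after a GGGS linker. Cells are FACS-sorted into 8 mCherry/sfGFP bins and deep-sequenced. PSI runs from 0 (unstable) to 1 (stable); wild type and das1Δ backgrounds, two technical replicates each.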

[1] = genetic background: das1 deletion

Row | Sequence | protein stability index [1] | protein stability index (genetic background: wild type)
1 | LAFIAACKKYIY [IKS1 C-terminal 12 aa] | 0.696 ± 0.023 | 0.487 ± 0.026
2 | CKDQTVTQILAT [DMO1 C-terminal 12 aa] | 0.6533 ± 0.0054 | 0.682 ± 0.029
3 | FQRRSISGLGDL [INP1 C-terminal 12 aa] | 0.711 ± 0.0092 | 0.676 ± 0.031
4 | TPEDADEEEDDE [RPL22B C-terminal 12 aa] | 0.6921 ± 0.0011 | 0.655 ± 0.014
5 | EPNGYIKNLKWT [RXT3 C-terminal 12 aa] | 0.713 ± 0.023 | 0.633 ± 0.034
6 | PKSNMYYSWTQL [ORC4 C-terminal 12 aa] | 0.7112 ± 0.0057 | 0.68625 ± 0.00028
7 | GEASTGNRLSFK [BNI1 C-terminal 12 aa] | 0.719 ± 0.013 | 0.72 ± 0.022
8 | EEIVGRHSDSAT [YAP6 C-terminal 12 aa] | 0.6926 ± 0.0035 | 0.69 ± 0.011
9 | LQVSQEFTTKTQ [NUP82 C-terminal 12 aa] | 0.676 ± 0.034 | 0.709 ± 0.048
10 | ECRARKASSNRS [YGR109W-A C-terminal 12 aa] | 0.681 ± 0.0073 | 0.707 ± 0.024
11 | YITTPSSSGHAL [YIL141W C-terminal 12 aa] | 0.716 ± 0.0081 | 0.674 ± 0.027
12 | ARIWKYKKIAPN [TUP1 C-terminal 12 aa] | 0.726 ± 0.0075 | 0.706 ± 0.0071
13 | QIVGRYVVDTSK [ADH1 C-terminal 12 aa] | 0.6827 ± 0.0057 | 0.683 ± 0.015
14 | LADAGHLWHSIT [YNL120C C-terminal 12 aa] | 0.746 ± 0.02 | 0.6128 ± 0.00091
15 | TISPYIRVCVST [YPR099C C-terminal 12 aa] | 0.3891 ± 0.0037 | 0.424 ± 0.018
16 | FMSNTLFNSSLV [YPR003C C-terminal 12 aa] | 0.668 ± 0.012 | 0.693 ± 0.037
17 | TFCRLCSHIQYF [YAL059C-A C-terminal 12 aa] | 0.7214 ± 0.006 | 0.694 ± 0.022
18 | FTPSNQSHGNFY [TEC1 C-terminal 12 aa] | 0.718 ± 0.015 | 0.662 ± 0.007
19 | NSDRLSPMEIYN [SPO14 C-terminal 12 aa] | 0.7118 ± 0.007 | 0.6799 ± 0.0022
20 | VKEIPEYSHLID [GCN5 C-terminal 12 aa] | 0.718 ± 0.0055 | 0.697 ± 0.0012
21 | KAGREELERVNV [QCR8 C-terminal 12 aa] | 0.688 ± 0.026 | 0.685 ± 0.015

Row | Sequence | protein stability index [1] | protein stability index (genetic background: wild type)
22 | VYEYIVNVNEYA [CPS1 C-terminal 12 aa] | 0.6949 ± 0.0031 | 0.682 ± 0.0094
23 | TYRLLLRLHAQD [FAR7 C-terminal 12 aa] | 0.68 ± 0.035 | 0.641 ± 0.019
24 | QVKLSILKSLGF [UBC7 C-terminal 12 aa] | 0.702 ± 0.02 | 0.657 ± 0.0096
25 | RMSNGLYTISMS [YPR050C C-terminal 12 aa] | 0.694 ± 0.017 | 0.6869 ± 0.0011
26 | SLDQEIQSLLSK [GPX2 C-terminal 12 aa] | 0.6903 ± 0.0018 | 0.654 ± 0.028
27 | PLSASWCTSLVT [YHR173C C-terminal 12 aa] | 0.696 ± 0.0087 | 0.671 ± 0.0088
28 | EKQQRRNMKNAL [RRS1 C-terminal 12 aa] | 0.704 ± 0.034 | 0.703 ± 0.01
29 | VYARDAAALRPV [SCS3 C-terminal 12 aa] | 0.716 ± 0.021 | 0.686 ± 0.03
30 | CDIQEEQVDITA [PUP1 C-terminal 12 aa] | 0.695 ± 0.0088 | 0.682 ± 0.015
31 | IKKEVSRRLNGR [CUR1 C-terminal 12 aa] | 0.647 ± 0.016 | 0.692 ± 0.03
32 | PSMTTTNFSAFM [ECM22 C-terminal 12 aa] | 0.698 ± 0.008 | 0.697 ± 0.058
33 | CTFIYFLYFSLF [YBL070C C-terminal 12 aa] | 0.325 ± 0.0072 | 0.288 ± 0.03
34 | FSVEQREKPSNN [GRX6 C-terminal 12 aa] | 0.69394 ± 0.0003 | 0.69949 ± 0.00033
35 | SALILMYKGFGL [UBP6 C-terminal 12 aa] | 0.664 ± 0.022 | 0.683 ± 0.015
36 | DGTTSKDSEKKK [COA4 C-terminal 12 aa] | 0.708 ± 0.011 | 0.648 ± 0.011
37 | LRIVACNSKKSE [TOA2 C-terminal 12 aa] | 0.673 ± 0.027 | 0.649 ± 0.022
38 | NEQFDHKFDETL [APL4 C-terminal 12 aa] | 0.726 ± 0.015 | 0.671 ± 0.01
39 | MSLRKYVSVCSM [YHL006W-A C-terminal 12 aa] | 0.5 ± 0.012 | 0.513 ± 0.0063
40 | NQFSQPPSNVEF [SCD6 C-terminal 12 aa] | 0.684 ± 0.025 | 0.697 ± 0.019
41 | SSVAFSKNLECV [YGR139W C-terminal 12 aa] | 0.7073 ± 0.0066 | 0.696 ± 0.038
42 | KGVFWDPACVIA [MFA1 C-terminal 12 aa] | 0.731 ± 0.0082 | 0.713 ± 0.031

Row | Sequence | protein stability index [1] | protein stability index (genetic background: wild type)
43 | ILELPHVVSDLF [SDT1 C-terminal 12 aa] | 0.713 ± 0.0089 | 0.7147 ± 0.0022
44 | KEFKQFEFHNRR [RRP36 C-terminal 12 aa] | 0.729 ± 0.011 | 0.681 ± 0.011
45 | DFSASSSVEEVK [MFT1 C-terminal 12 aa] | 0.7088 ± 0.004 | 0.662 ± 0.011
46 | HAGTRPVLLLQK [YKL053W C-terminal 12 aa] | 0.694 ± 0.016 | 0.674 ± 0.04
47 | AGEKTVAELMEN [PYP1 C-terminal 12 aa] | 0.679 ± 0.025 | 0.687 ± 0.022
48 | LVKHTYKRSSSS [VBA1 C-terminal 12 aa] | 0.705 ± 0.029 | 0.656 ± 0.019
49 | AESPEEADVEMS [PUP2 C-terminal 12 aa] | 0.6788 ± 0.0056 | 0.707 ± 0.052
50 | GLRVANPDSDPE [YDR239C C-terminal 12 aa] | 0.7 ± 0.0077 | 0.721 ± 0.081
51 | KERSHHFVRNMN [YKL102C C-terminal 12 aa] | 0.707 ± 0.0071 | 0.637 ± 0.048
52 | LAITIAALCASL [EXG2 C-terminal 12 aa] | 0.55 ± 0.0069 | 0.572 ± 0.018
53 | NSLTSLSIYAFL [YEL018C-A C-terminal 12 aa] | 0.7094 ± 0.0019 | 0.685 ± 0.022
54 | TVSDGGSIFECS [RAD28 C-terminal 12 aa] | 0.7127 ± 0.0051 | 0.708 ± 0.06
55 | FFMIMVMVINFI [FIG2 C-terminal 12 aa] | 0.195 ± 0.03 | 0.199 ± 0.0042
56 | HCTVVLPSILKR [YHR217C C-terminal 12 aa] | 0.714 ± 0.024 | 0.705 ± 0.0033
57 | TKWWLHYYRKLR [SBE2 C-terminal 12 aa] | 0.7418 ± 0.005 | 0.701 ± 0.023
58 | VHDDSRCYTHFY [BNI4 C-terminal 12 aa] | 0.7313 ± 0.0033 | 0.726 ± 0.047
59 | TVLKAAKKEGLN [MGR3 C-terminal 12 aa] | 0.672 ± 0.015 | 0.671 ± 0.044
60 | AYFIDVVGCSGL [LIH1 C-terminal 12 aa] | 0.706 ± 0.00073 | 0.705 ± 0.025
61 | CIPLINYHLRKS [CBS1 C-terminal 12 aa] | 0.709 ± 0.022 | 0.673 ± 0.023
62 | RAGSHSVGLLPM [UIP5 C-terminal 12 aa] | 0.6976 ± 0.0019 | 0.6835 ± 0.0029
63 | NKTNNKKKHGKK [CLU1 C-terminal 12 aa] | 0.698 ± 0.044 | 0.713 ± 0.024

Row | Sequence | protein stability index [1] | protein stability index (genetic background: wild type)
64 | EVLDQLEPQDSS [MCM6 C-terminal 12 aa] | 0.699 ± 0.019 | 0.6847 ± 0.0064
65 | SNSNQHFGNVTF [IME2 C-terminal 12 aa] | 0.713 ± 0.0014 | 0.6829 ± 0.0059
66 | LDIFCLIFRKRT [YPR076W C-terminal 12 aa] | 0.508 ± 0.031 | 0.5061 ± 0.00095
67 | HQFCEQKYVETI [RRT16 C-terminal 12 aa] | 0.7109 ± 0.0024 | 0.664 ± 0.0071
68 | SKMLKNKIPLKN [YGL138C C-terminal 12 aa] | 0.667 ± 0.0083 | 0.685 ± 0.039
69 | SNDDFRKMFLGE [PRP24 C-terminal 12 aa] | 0.725 ± 0.011 | 0.708 ± 0.01
70 | TRMNVSHYYIIT [YOL166C C-terminal 12 aa] | 0.6573 ± 0.0038 | 0.641 ± 0.019
71 | EAQLSRSEVLLV [COS2 C-terminal 12 aa] | 0.648 ± 0.0028 | 0.6242 ± 0.0027
72 | PIKIIYNNKCPS [YLL006W-A C-terminal 12 aa] | 0.709 ± 0.02 | 0.688 ± 0.0074
73 | IVNDVWLPFQKW [DSD1 C-terminal 12 aa] | 0.729 ± 0.03 | 0.701 ± 0.02
74 | DACIKRWNVVLE [AIP1 C-terminal 12 aa] | 0.684 ± 0.023 | 0.71 ± 0.049
75 | EHKGSIEAGFTS [CSS2 C-terminal 12 aa] | 0.698 ± 0.023 | 0.715 ± 0.025
76 | PNFGFLILNSEP [YAL064W C-terminal 12 aa] | 0.73226 ± 0.00022 | 0.68 ± 0.014
77 | FHTLENHLKGNS [ADR1 C-terminal 12 aa] | 0.697 ± 0.02 | 0.731 ± 0.064
78 | LPKPAGWQNHIG [KTR1 C-terminal 12 aa] | 0.7014 ± 0.0053 | 0.68 ± 0.009
79 | GSTSCPLLRLSR [YHR073C-B C-terminal 12 aa] | 0.707 ± 0.021 | 0.685 ± 0.013
80 | QDELDAMKEMGF [CSM3 C-terminal 12 aa] | 0.698 ± 0.023 | 0.699 ± 0.049
81 | IDLIAFLRNGPL [GPR1 C-terminal 12 aa] | 0.737 ± 0.039 | 0.749 ± 0.088
82 | KTVSDEEYAYIV [APM2 C-terminal 12 aa] | 0.6901 ± 0.0029 | 0.707 ± 0.011

From the supplement of paper PMC10724198
